In this test the target is Wild type IL-10 dimer fused to xhCD8b (format E) (Homo sapiens (Human), UniProt P22301 19-178; P22301 19-178). Kind of test: SPR 37 C; fusion captured via Fc, IL-10RA ECD analyte. The method, then: To determine the affinities with IL-10RA, antibody or fusion proteins were captured onto the CM4 sensor chip via their Fc by covalently anti-human Fc antibody (Southern Biotech, Catalog No. 2081-01). Protein was not captured on flow cell 1 to serve as a reference surface. In-house generated human IL-10RA ECD, diluted in HBS-P+ buffer supplemented with 1 g/L BSA, at concentrations of 8, 40, 200, 1000, and 5000 nM, or buffer was flowed over the surface-captured fusion protein for 2 minutes at 30 μL/min. Dissociation was monitored for 4-5 minutes, and the anti-hIgG-Fc surface was regenerated with three 30-seconds injections of 75 mM phosphoric acid between analysis cycles. Binding data were analyzed by Biacore® Evaluation Software version 3.2 using a 1:1 Langmuir with mass transport model or by steady-state affinity analysis.
As shown in Example 3, fusion proteins comprising CD8 antibodies and IL-10 monomer polypeptides selectively activated CD8+ T cells over monocytes and CD4+ T cells. […] Amino acid substitutions and the amino acid sequences of representative mutant monomer IL-10 polypeptides that were evaluated are shown in Table 4A. […] In all cases, the IL-10 polypeptide was expressed as a fusion protein, with the antibody binding domain specified in column 2, and the format shown in parentheses, based on the schematics depicted in FIG. 6.

Sequence of Wild type IL-10 dimer fused to xhCD8b (format E) (P22301 19-178 limits assumed, chain 1 of 2): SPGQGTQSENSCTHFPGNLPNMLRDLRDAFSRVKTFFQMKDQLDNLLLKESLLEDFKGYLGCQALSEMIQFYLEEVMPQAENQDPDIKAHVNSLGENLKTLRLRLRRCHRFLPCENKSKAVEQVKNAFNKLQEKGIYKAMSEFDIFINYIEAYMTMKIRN
Sequence of Wild type IL-10 dimer fused to xhCD8b (format E) (P22301 19-178 limits assumed, chain 2 of 2): as the sequence (P22301 19-178 limits assumed, chain 1 of 2) above

B1: human IL-10RA ECD (receptor)
chain: HGTELPSPPSVWFEAEFFHHILHWTPIPNQSESTCYEVALLRYGIESWNSISNCSQTLSYDLTAVTLDLYHSNGYRARVRAVDGSRHSNWTVTNTRFSVDEVTLTVGSVNLEIHNGFILGKIQLPRPKMAPANDTYESIFSHFREYEIAIRKVPGNFTFTHKKVKHENFSLLTSGEVGEFCVQVKPSVASRSNKGMWSKEECISLTRQYFTVTN
notes: In-house generated ECD; A biotinylated form held the fusions on the chip in the IL-10RB assay
With B1, the Kd (usually the equilibrium constant for the complex coming apart) came out at 4.5 nM.

These data come from US20240010695A1 (ASHER BIOTHERAPEUTICS, published 2024).
